Results taken from the nanobody polyreactivity screen of Harvey et al. (2022).

Assay: yeast display, Sf9 membrane polyspecificity reagent, FACS + sequencing; frameworks hold sequencing errors
Outline: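 In a synthetic yeast display library (Saccharomyces cerevisiae BJ5465), nanobody expression was induced with galactose for 36–48 hours. FACS gates were set low and high (top ~1%) using anti-HA fluorescence for expression and streptavidin fluorescence for binding of the Sf9 membrane reagent. Each polyreactivity label is drawn from the gate of origin.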

QVQLVESGGGLVQAGGSLRLSCSASGSTFTAYAMGWSRQAPGKERELVATISDSGGSTYYADSVKGRFTISRDNAKNTVYLQMNSLKPEDTAVYYCAADVYSYFYQVVYTFDYWGQCTQVTVSS
polyreactivity (PSR sort gate): low polyreactivity

PVQLVDSGGGLVQAGGSLRLSCAASGKIFFGYTMGWYRTAPGKERELVAAITYRGGRTYYADSEKGRFTISRDNAKHTVYLQMNSLKPEDTAVYYFAVGGSGYGRYGGGYARDYWGQGTQVTVSS
polyreactivity (PSR sort gate): high polyreactivity

QVQLVESGGGLVQAGGSLRLSCAASGRTFRRNAMGWYRQAPGKERELVAAITRSGGSTYYADSVKGRFTISRDNAKNTVYLQMNSLKPEDTAVYYCAAGTYVGLKTQYDYWGQGTQVTVSS
polyreactivity (PSR sort gate): high polyreactivity

QVQLVESGGGLVQAGGRHRLSCAASGFIFHVYAMGWYRQAPGKERELVAAISSGGSTYYADSVKGRFTISRDNAKNTVYLQMNSLKPEDTAVYYCNGARSRYRYRYDYWGQGTQVTVSS
polyreactivity (PSR sort gate): high polyreactivity

QVQHVESGGGLVQAGGSLRLSCAASGSTFYIYAMGWYRQAPGKERELVATITDGGSTNFADSVKGRFTISRDNAKNTVYLQMNSLKPEDTAVYYCNANVWTGYDYWGLGTQVTVSS
polyreactivity (PSR sort gate): low polyreactivity

QVQLVESGGGLVQAGGSLRLSCAASGNTFRAYAMGWYRQAPGKERELVATITWSGGITDYADSVKGRFTISRDNAKNTVSLQMNSLKPEDTAVYDCAARSYRWWNFNYWGQGTQVTVSS
polyreactivity (PSR sort gate): high polyreactivity

QVQLVESGGGLVQAGGSLRLSCAASGFIFYYYAMGWYRPAPGKERELVAAISVRGGRTYYADSVKGRFTISRDNAKNTVYLQMNSLKPEDTAVYYCAADLYNRGRGSSQSYRTGYDYWGQGTQVTVSS
polyreactivity (PSR sort gate): high polyreactivity

QVQLVESGGGLVQAGGSLRLSCAASGSIFYGYAMGWYRQAPGKERELVAAITSGGRTYYADSVKGRFTISRDNAKNTVYLQMNSLKPEDTAVYYCNKLNYWSVRYEYWGQGTQVTVSS
polyreactivity (PSR sort gate): high polyreactivity

QVQLVESGGGLVQAGGSLRLSCAASGRTSTIYTMGWYRQAPGKEREFVASISAGAGTYYADSVKGRFTISRDNAKNTVYLQMNSLKPEDTAVYYCSASVYWRSTRRHQMDYWGQGTQVTVSS
polyreactivity (PSR sort gate): high polyreactivity

QVQLVESGGGLVQAGGSLRLSCAASGFIFSWNDLGWYRQATGKERELVAAITSGTGSTYYADSVKGRFTISRDNAKNTVYLQMNSLKPEDTAVYYCAAGTNYGKLRIRFDYWGQGTQVTVSS
polyreactivity (PSR sort gate): low polyreactivity

QVQLVESGGGLVQAGGSLRLSCAASGNIFDYYAMGWYRQAPGKERELVAAISTGTSTYADSVKGRFTISRDNAKNTVYLQMNSVKPEDTAVYYCASDVGIRPLNYHPYNYWGQGTQVTVSS
polyreactivity (PSR sort gate): low polyreactivity

QVQLVESGGGLVQAGGSLRLSCAASGSIFPIYAWGWYRQAPGKERELVAAISGSGARTYYSDSVKGRFTISRDNAKNTVYLQMNSLKPEDTAVYYCNAKYGYDSEARIVKPVRYDYWGQGTQVTVSS
polyreactivity (PSR sort gate): high polyreactivity

QLQLVESGGGLVQAGGSLRLSCAASGIIFRWYAMGFYRQAPGKERELVAAITSSGGRTYYADSVKGRFTISRDNAKNTVYLPMNILKPEDTAVYYCAASYYIVGCDPYDYWGQGTQVTVSS
polyreactivity (PSR sort gate): high polyreactivity

QVQLVESGGGLVQAGGSLRLSCAASGSTFGYYAMRWSRQAPGKERELVAAISGSGGSTYYADSVKGRFTISRDNAKNTVYLQMNSLKQEDTAVYYCATSWAGSEYYYWGQGTQVTVSS
polyreactivity (PSR sort gate): high polyreactivity

QVQLVESGGGLVQAGGSLRLSCAASGSTIHINAMGWYRQAPGKERELVADINWSGGSTYYADSVKGRFTISRDNAKNTVYLQMNSLKPADSAVYYCAADVGVFTYSPYDAGEHDYWGQGSQVTVSS
polyreactivity (PSR sort gate): low polyreactivity

QVQLVESGGGLVQAGGSLRLSCAASGRTLPATGMGWYRQAPGKERELVAAINWRGGITYYADSVKGRFTISRDNAKNTVYLQMNSLKPVDTAVYYCARLRYFLLNGSLRYGTSDRDYWGQGTQVTVSS
polyreactivity (PSR sort gate): high polyreactivity

QVQLVESGGGLVQAGGSLRLSCAASGRTFRAYTMGWYRQAPGKERELVAAISTPGGSTYYADSVKGRFTISRDNAKNTVYLQMNSLKPEDTAVYYCAAGTFYYWLSYDYWGQGTQVTVSS
polyreactivity (PSR sort gate): low polyreactivity

QVQLVESGGGLVQAGCSLRLSCAASGRTFDDYAMGWYRQAPGKERELVAAISSRCGSTYYADSVKGRFTISRDNAKNSVYLQMNSLKPEDTAVYYCNTLQSSHGSSQYDSWGQGTQVTVSS
polyreactivity (PSR sort gate): low polyreactivity

QVQLVESGGGLVQAGGSLRLSCAASGSIIVTYAMGWYRQAPGKERELVATISGGGSTTYADSVKGRFTISRDNAKNTVYLQMNSLKPEDTAVYYCATDARYTSHRTAGYDYWGQGTQVTVSS
polyreactivity (PSR sort gate): low polyreactivity

QVQLVESGGGLVQAGGSLRLSCAASGFTFSYYAMGWYRQAPGKERELVAAISWSGTATYYADSVKGRFTISRDNAKNTVYLQMNSLKPEDTAVYYCAAGYSASGKVDYRGQGTQVTVSS
polyreactivity (PSR sort gate): high polyreactivity

QVQLVESGGGLVQAGGSLRLSCAASGRIFLRNAMGWYRQAPGKERELVAAISSSGGRTYYADSVKGRFTISRDNAKNTVYLQMNSLKPEDTAVYYCNARWHGSFDYWGQGTQVTVSS
polyreactivity (PSR sort gate): low polyreactivity

QVQLVESGGGLVQAGGSLRLTCAASGFTFARYAMGWYRQAPGKERELVAAISSNDNTSYADSVKGRFTISRDNAKNTVYLQMNSLKPEDTAVYDCAKKRYHWYGRYYYWGQGTQLTVSS
polyreactivity (PSR sort gate): high polyreactivity

QVQLVESGGGLVQAGGSLPLSCAASGSISGLNARGWSRQAPGTEREMVAAISRSGTRRYYADSVKGRFTISRDNEKNTVYLQMNSLKPEDSAVYYCAVQYAVAVGRYNYWGQGTQVTVSS
polyreactivity (PSR sort gate): high polyreactivity

QVQLVESGGGLVQAGGSLRLSCAASGFIFQTNVMGWYRQAPGKERELVAAISSGDSTYYADSVKGRFTISRDNAKNTVYLQMNSLKPEDTAVYYCAADVLGTTTTVGGFNYWGQGTQVTVSS
polyreactivity (PSR sort gate): low polyreactivity

QGQLVESGGGLVQAGGSLRLSCAASGGTFSDNVMGWYRQAPGKERELVAANSRSGGSTYYADSVKGRNTISRDNAKNTLSLQMNSLKPEDTAVYYCNAIGSKRGAYKAAFNYWGQGTQVTVSS
polyreactivity (PSR sort gate): high polyreactivity

QVQLVESGGGLVQAGGSLRLSCAASGSIFTVYAMGWYRQAPGKERELVATITGSDGRTDYADSVKGRFTISRDNAKNTVYLQMNSLKPEDTAVYYCAAQVFKWKYRQSLWFDQGYYWGQGTQVTVSS
polyreactivity (PSR sort gate): low polyreactivity

QVQLVESGGGLVQAGGSLRLSCAASGSIFFPYAMGWSRQAPGKERELVAAITYGGGSTYYADSVKGRFTISRDNAKNTVYLQMNSLIPEDTAVYYCAAAVSYWRHGYQLSYDYWGQGTQVTVSS
polyreactivity (PSR sort gate): high polyreactivity

QVHLVESGGGLVQAGGTLRLRCAASGSTFVYNDMGWYRQAPGKERELVAAISTSGGSTYYADSVKGRFTISRDNAKNTVYLQMNSLKPEDTAVYFCAVDSYYFGYWAIQWEGDYWGQGTQVTVSS
polyreactivity (PSR sort gate): low polyreactivity

QVQLVDSGGGLVQAGGSLRLSCAASGSIFSVYSMGGNRQATGKERELVASISRTGTTNYADSVKGSFTISRDNAKNTVYLQMNSLKPEDTAVFYCATDFTDWDVFLIKEFGYDYWGQGTQVTVSS
polyreactivity (PSR sort gate): low polyreactivity

QVQLVESGGGLVQAGGSLRLSCAASGIIFRGNALGWYRPAPGKERELVAAISRSGRTNYADSVKGRFTISRDNAKNTVYLQMNSLKPEDNAVYYCAVDKRYGRVVGRDYDYWGQGTQVTVSS
polyreactivity (PSR sort gate): high polyreactivity

QVQLVESGGGLVQAGGSLRLSCAASGFTFSSYAMGWYRQAPGKERELVAAISGSGDRTRYADSVKGRFTISRDNAKNTVYLQMNSLKPEDTAVYYCAAKSPGSQTAMDYWGQGTQVTVSS
polyreactivity (PSR sort gate): high polyreactivity
